Data published in the supplement of paper PMC7125110.
± gives the standard error. For some of these results: Variants at the floor of the assay were thinned out.

B1: glmS ribozyme (parent)
chain: AUAAAAGCGCCAGAACUACAGAAAUGUAGUUGACGAGGAGGAGGUUUAUCGAAUUUUCGGCGGAUGCCUCCAAA

Tests used:
Conditions in all cases: with glucosamine-6-phosphate
[1] = variants of: B1; experiment: kcat; higher = faster cleavage; RNA array
Summary of the method: (§1)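 Sequenced MiSeq chips were the platform: E. coli RNA polymerase transcribed barcoded ribozyme variants on them in situ, and a hybridised Cy3 probe tracked these at 37 °C. After glucosamine-6-phosphate (40 μM to 10 mM) in HEPES/KCl/Mg(OAc)2 buffer was flowed in, tiles were imaged over ~14 h. Signals normalised to baseline and to non-cleaving reference variants were reduced to per-tile medians and fit to one- or two-exponential decays to obtain kobs. kcat and KM were derived through weighted Michaelis–Menten fits across concentrations.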

[2] = variants of: B1; experiment: self-cleavage kobs at 40 uM GlcN6P; higher = faster cleavage; RNA array
Summary of the method: as §1

[3] = variants of: B1; experiment: self-cleavage kobs at 10000 uM GlcN6P; higher = faster cleavage; RNA array
Summary of the method: as §1

[4] = variants of: B1; experiment: self-cleavage kobs at 160 uM GlcN6P; higher = faster cleavage; RNA array
Summary of the method: as §1

[5] = variants of: B1; experiment: self-cleavage kobs at 640 uM GlcN6P; higher = faster cleavage; RNA array
Summary of the method: as §1

[6] = variants of: B1; experiment: self-cleavage kobs at 2500 uM GlcN6P; higher = faster cleavage; RNA array
Summary of the method: as §1

[7] = variants of: B1; experiment: KM; higher = weaker cofactor use; RNA array
Summary of the method: as §1

Row | Variant | kcat [1] | self-cleavage kobs at 40 uM GlcN6P [2] | self-cleavage kobs at 10000 uM GlcN6P [3] | self-cleavage kobs at 160 uM GlcN6P [4] | self-cleavage kobs at 640 uM GlcN6P [5] | self-cleavage kobs at 2500 uM GlcN6P [6] | KM [7]
1 | C10A A12G | < 1e-05 s⁻¹ | < 1e-05 s⁻¹ | < 1e-05 s⁻¹ | – | – | – | –
2 | A12U C70U | 0.00743 ± 0.0034 s⁻¹ | 0.00232 ± 0.00023 s⁻¹ | – | 0.0134 ± 0.0027 s⁻¹ | 0.0108 ± 0.0021 s⁻¹ | 0.0055 ± 0.0012 s⁻¹ | –
3 | G29U G38A | < 1e-05 s⁻¹ | – | – | < 1e-05 s⁻¹ | < 1e-05 s⁻¹ | < 1e-05 s⁻¹ | –
4 | C11A A14C | 6.31e-05 ± 3.4e-06 s⁻¹ | – | 4.9e-05 ± 1.5e-05 s⁻¹ | – | – | 3.05e-05 ± 1.3e-05 s⁻¹ | 2820 ± 410 µM
5 | A6U C68A | < 1e-05 s⁻¹ | – | – | – | – | – | –
6 | G37C C68G | 1.8e-05 ± 3.8e-06 s⁻¹ | – | – | – | – | – | –
7 | C50G G60A | 4.61e-05 ± 2.1e-05 s⁻¹ | – | – | 7.6e-05 ± 1.9e-05 s⁻¹ | – | 4.5e-05 ± 1.8e-05 s⁻¹ | –
8 | A33G A64G C70A | 5.02e-05 ± 9.3e-06 s⁻¹ | – | – | – | – | – | –
9 | U46G U49G | 9.12e-05 ± 1.4e-05 s⁻¹ | < 1e-05 s⁻¹ | 7.66e-05 ± 1.7e-05 s⁻¹ | – | – | 8.04e-05 ± 1.8e-05 s⁻¹ | –
10 | A48U C71A | 0.000129 ± 1.2e-05 s⁻¹ | – | 0.000111 ± 1.4e-05 s⁻¹ | – | – | 0.000102 ± 2.6e-05 s⁻¹ | 1380 ± 540 µM
11 | A6U A36C G38A A52U | 1.37e-05 ± 2.9e-06 s⁻¹ | – | < 1e-05 s⁻¹ | – | < 1e-05 s⁻¹ | – | –
12 | U65A G66A | 0.00068 ± 8.6e-05 s⁻¹ | 3.95e-05 ± 1.7e-05 s⁻¹ | 0.000577 ± 7.2e-05 s⁻¹ | 6.05e-05 ± 1.3e-05 s⁻¹ | 0.000177 ± 2.8e-05 s⁻¹ | 0.000442 ± 6.9e-05 s⁻¹ | 1640 ± 390 µM
13 | U54G G59C | < 1e-05 s⁻¹ | – | – | – | < 1e-05 s⁻¹ | – | –
14 | U31A A39U | 0.0125 ± 0.0029 s⁻¹ | 0.000161 ± 2.9e-05 s⁻¹ | 0.00871 ± 0.0014 s⁻¹ | 0.000508 ± 8.4e-05 s⁻¹ | 0.00196 ± 0.00029 s⁻¹ | 0.00802 ± 0.0015 s⁻¹ | 3370 ± 1000 µM
15 | A14C A15C | 0.00204 ± 0.00038 s⁻¹ | 4.27e-05 ± 6.9e-06 s⁻¹ | 0.00157 ± 0.00017 s⁻¹ | 0.000103 ± 1.6e-05 s⁻¹ | 0.000339 ± 4.6e-05 s⁻¹ | 0.0011 ± 0.00014 s⁻¹ | 2740 ± 760 µM
16 | G44U U56A | 0.000132 ± 9e-06 s⁻¹ | < 1e-05 s⁻¹ | 0.000102 ± 9.4e-06 s⁻¹ | – | – | 6.59e-05 ± 1e-05 s⁻¹ | 2840 ± 550 µM
17 | G13A U47A | 0.000438 ± 6e-05 s⁻¹ | – | 0.000349 ± 6.5e-05 s⁻¹ | – | 7.42e-05 ± 1.6e-05 s⁻¹ | 0.000178 ± 3.2e-05 s⁻¹ | 3210 ± 750 µM
18 | A12C G40U | 0.00214 ± 0.00032 s⁻¹ | 4.4e-05 ± 6.1e-06 s⁻¹ | 0.00165 ± 0.00013 s⁻¹ | 0.000109 ± 1.2e-05 s⁻¹ | 0.000471 ± 5e-05 s⁻¹ | 0.0012 ± 0.00012 s⁻¹ | 2490 ± 550 µM
